Like-named read-outs stand apart in the source and are kept apart here. Each block holds one substance with its values, some of them ahead of it.
Columns and labels:
[1] = molecular target: N-SH2 domain of SHP2 (residues 2–111) (human) (UniProt Q06124)
[2] = molecular target: N-SH2 domain of SHP2 (residues 2–111) (human) (UniProt Q06124); remark: listed apart in the source
[3] = molecular target: N-SH2 domain of SHP2 (residues 2–111) (human) (UniProt Q06124); assay: fluorescence polarisation; fluorescence anisotropy, displacement: 0.10 nM CF-P9W5 (0.5 nM for P8 and OP) with […] N-SH2 titrated with unlabelled peptide; fluorescence buffer

Kd [1]: 53 nM
Substance: CF-P9, fluorescently labeled IRS-1 pY1172 analogue (nine residues) (peptide)

Kd [2]: 6600 nM
Substance: CF-P9Y0, unphosphorylated analogue of the labeled IRS-1 pY1172 peptide

Kd [3]: 1.6 nM
Substance: P8W5, P8 analogue with W at position +5 (peptide)
